Columns and labels:
C. sporogenes MGL [1] = target: T1, C. sporogenes MGL (Clostridium sporogenes, UniProt A0A7X5SZI3); assay: inhibition of L-Met γ-elimination, NADH-coupled with D-2-hydroxyisocaproate dehydrogenase, Dixon plot; format: biochemical
T1 construct: gene megL; subunit 43 kDa; PLP enzyme
T1 sequence (A0A7X5SZI3 1-400): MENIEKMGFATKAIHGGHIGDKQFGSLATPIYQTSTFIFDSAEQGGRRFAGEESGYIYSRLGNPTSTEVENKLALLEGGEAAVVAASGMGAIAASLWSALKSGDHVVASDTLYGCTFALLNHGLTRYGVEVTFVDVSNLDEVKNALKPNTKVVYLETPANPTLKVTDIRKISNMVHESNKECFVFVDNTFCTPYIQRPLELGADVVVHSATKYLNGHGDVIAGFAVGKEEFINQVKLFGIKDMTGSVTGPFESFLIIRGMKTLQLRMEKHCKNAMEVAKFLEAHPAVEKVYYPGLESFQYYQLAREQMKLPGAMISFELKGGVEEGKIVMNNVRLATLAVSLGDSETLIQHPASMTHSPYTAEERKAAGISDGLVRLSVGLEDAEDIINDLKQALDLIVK
Source text: inhibition of L-Met γ-elimination, NADH-coupled with D-2-hydroxyisocaproate dehydrogenase, Dixon plot on C. sporogenes MGL

C. sporogenes MGL [2] = target: T1, C. sporogenes MGL; assay: γ-elimination steady-state kinetics, NADH-coupled with D-2-hydroxyisocaproate dehydrogenase, […] nm; format: biochemical; conditions: pH 8.0, 100 mM potassium phosphate, 0.1 mM PLP, 1 mM DTT, 1 mM EDTA, 30 °C
C. sporogenes MGL [3] = target: T1, C. sporogenes MGL; assay: absorption spectrum of holoenzyme, lognormal deconvolution of internal aldimine bands; format: binding; conditions: covalent internal aldimine; pH 8.0, 25 °C, working buffer without PLP
purified protein [4] = substrate: C=CC[S+]([O-])C[C@H](N)C(=O)O; assay: purified protein; format: biochemical, Clostridium sporogenes; conditions: pH 8.0, 100 mM potassium phosphate, 0.1 mM PLP, 1 mM DTT, 1 mM EDTA, 30 °C
purified protein [5] = substrate: CC[S+]([O-])CC[C@H](N)C(=O)O; assay: purified protein; format: biochemical, Clostridium sporogenes; conditions: pH 8.0, 100 mM potassium phosphate, 0.1 mM PLP, 1 mM DTT, 1 mM EDTA, 30 °C
purified protein [6] = substrate: CC[S+]([O-])C[C@H](N)C(=O)O; assay: purified protein; format: biochemical, Clostridium sporogenes; conditions: pH 8.0, 100 mM potassium phosphate, 0.1 mM PLP, 1 mM DTT, 1 mM EDTA, 30 °C
purified protein [7] = substrate: CSCC[C@H](N)C(=O)O; assay: purified protein; format: biochemical, Clostridium sporogenes; conditions: pH 8.0, 100 mM potassium phosphate, 0.1 mM PLP, 1 mM DTT, 1 mM EDTA, 30 °C
purified protein [8] = substrate: CC(=O)OC[C@H](N)C(=O)O; assay: purified protein; format: biochemical, Clostridium sporogenes; conditions: pH 8.0, 100 mM potassium phosphate, 0.1 mM PLP, 1 mM DTT, 1 mM EDTA, 30 °C
purified protein [9] = substrate: CC(=O)OCC[C@H](N)C(=O)O; assay: purified protein; format: biochemical, Clostridium sporogenes; conditions: pH 8.0, 100 mM potassium phosphate, 0.1 mM PLP, 1 mM DTT, 1 mM EDTA, 30 °C
purified protein [10] = substrate: C[S+]([O-])CC[C@H](N)C(=O)O; assay: purified protein; format: biochemical, Clostridium sporogenes; conditions: pH 8.0, 100 mM potassium phosphate, 0.1 mM PLP, 1 mM DTT, 1 mM EDTA, 30 °C
purified protein [11] = substrate: CCSC[C@H](N)C(=O)O; assay: purified protein; format: biochemical, Clostridium sporogenes; conditions: pH 8.0, 100 mM potassium phosphate, 0.1 mM PLP, 1 mM DTT, 1 mM EDTA, 30 °C

C[C@H](N)C(=O)O [L-Ala]
Ki (C. sporogenes MGL [1]): 1.5 mM

CCC[C@H](N)C(=O)O [L-Nva]
Ki (C. sporogenes MGL [1]): 1.9 mM

CCCC[C@H](N)C(=O)O [L-Nle]
Ki (C. sporogenes MGL [1]): 0.37 mM

CC[C@H](N)C(=O)O [L-Abu]
Ki (C. sporogenes MGL [1]): 2 mM

CCSCC[C@H](N)C(=O)O [S-Et-L-Hcy]
Km (C. sporogenes MGL [2]): 240 µM

Cc1ncc(COP(=O)(O)O)c(C=O)c1O [PLP]
absorption spectrum of holoenzyme, lognormal deconvolution of internal aldimine (C. sporogenes MGL [3]): The ionic form of the internal aldimine and tautomeric equilibrium are almost the same

B1: C. sporogenes MGL (Clostridium sporogenes) (protein)
chain: MENIEKMGFATKAIHGGHIGDKQFGSLATPIYQTSTFIFDSAEQGGRRFAGEESGYIYSRLGNPTSTEVENKLALLEGGEAAVVAASGMGAIAASLWSALKSGDHVVASDTLYGCTFALLNHGLTRYGVEVTFVDVSNLDEVKNALKPNTKVVYLETPANPTLKVTDIRKISNMVHESNKECFVFVDNTFCTPYIQRPLELGADVVVHSATKYLNGHGDVIAGFAVGKEEFINQVKLFGIKDMTGSVTGPFESFLIIRGMKTLQLRMEKHCKNAMEVAKFLEAHPAVEKVYYPGLESFQYYQLAREQMKLPGAMISFELKGGVEEGKIVMNNVRLATLAVSLGDSETLIQHPASMTHSPYTAEERKAAGISDGLVRLSVGLEDAEDIINDLKQALDLIVK
notes: subunit 43 kDa; PLP enzyme
Km (purified protein [4]): 1430 µM | kcat (purified protein [4]): 11.4 s⁻¹ | kcat/Km (purified protein [4]): 7990 M⁻¹ s⁻¹ | Km (purified protein [5]): 600 µM | kcat (purified protein [5]): 0.48 s⁻¹ | kcat/Km (purified protein [5]): 800 M⁻¹ s⁻¹ | Km (purified protein [6]): 330 µM | kcat (purified protein [6]): 1.39 s⁻¹ | kcat/Km (purified protein [6]): 4210 M⁻¹ s⁻¹ | Km (purified protein [7]): 600 µM | kcat (purified protein [7]): 21.6 s⁻¹ | kcat/Km (purified protein [7]): 36000 M⁻¹ s⁻¹ | Km (purified protein [8]): 8010 µM | Km (purified protein [9]): 3180 µM | kcat (purified protein [9]): 37.3 s⁻¹ | kcat/Km (purified protein [9]): 11700 M⁻¹ s⁻¹ | Km (purified protein [10]): 11390 µM | kcat (purified protein [10]): 21.7 s⁻¹ | kcat/Km (purified protein [10]): 1900 M⁻¹ s⁻¹ | Km (purified protein [11]): 430 µM | kcat (purified protein [11]): 6.53 s⁻¹ | kcat/Km (purified protein [11]): 15200 M⁻¹ s⁻¹
